Assay results from paper PMC4914107 (Nucleic Acids Research, 2016).
Where two headings read alike, the source gives them in different places. Values belong to the binder of their own block, whether it stands above or below them.

Legend:
[1] = target: T1, RAD51 (purified) (UniProt Q06609 1-339); assay: pull-down
T1 sequence (looked up): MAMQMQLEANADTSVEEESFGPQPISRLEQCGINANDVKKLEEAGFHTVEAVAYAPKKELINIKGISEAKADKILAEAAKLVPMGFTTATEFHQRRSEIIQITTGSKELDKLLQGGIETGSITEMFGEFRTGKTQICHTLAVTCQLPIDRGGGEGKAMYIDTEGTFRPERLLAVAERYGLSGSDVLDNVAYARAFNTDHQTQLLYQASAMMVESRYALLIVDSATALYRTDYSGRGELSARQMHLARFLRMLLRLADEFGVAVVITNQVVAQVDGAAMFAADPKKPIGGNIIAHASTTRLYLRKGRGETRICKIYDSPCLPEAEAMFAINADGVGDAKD

[2] = target: T1, RAD51 (purified); assay: pull-down; remark: listed apart in the source

binding result [1]: binds
B1: 2XMBP-BRC4-DBD (domain or fragment, human)
chain: PVGTGNQLVTFQGQPERDEKIKEPTLLGFHTASGKKVKIAKESLDKVKNLFDEKEQGTSEITSFSHQWAKTLKYREACKDLELACETIEITAAPGGGSPYLSQFQQDKQQLVLGTKVSLVENIHVLGKEQASPKNVKMEIGKTETFSDVPVKTNIEVCSTYSKDSENYFETEAVEIAKAFMEDDELTDSKLPSHATHSLFTCPENEEMVLSNSRIGKRRGEPLILVGEPSIKRNLLNEFDRIIENQEKSLKASKSTPDGTIKDRRLFMHHVSLEPITCVPFRTTKERQEIQNPNFTAPGQEFLSKSHLYEHLTLEKSSSNLAVSGHPFYQVSATRNEKMRHLITTGRPTKVFVPPFKTKSHFHRVEQCVRNINLEENRQKQNIDGHGSDDSKNKINDNEIHQFNKNNSNQAVAVTFTKCEEEPLDLITSLQNARDIQDMRIKKKQRQRVFPQPGSLYLAKTSTLPRISLKAAVGGQVPSACSHKQLYTYGVSKHCIKINSKNAESFQFHTEDYFGKESLWTGKGIQLADGGWLIPSNDGKAGKEEFYRALCDTPGVDPKLISRIWVYNHYRWIIWKLAAMECAFPKEFANRCLSPERVLLQLKYRYDTEIDRSRRSAIKKIMERDDTAAKTLVLCVSDIISLSANISETSSNKTSSADTQKVAIIELTDGWYAVKAQLDPPLLAVLKNGRLTVGQKIILHGAELVGSPDACTPLEAPESLMLKISANSTRPARWYTKLGFFPDPRPFPLPLSSLFSDGGNVGCVDVIIQRAYPIQWMEKTSSGLYIFRNEREEEKEAAKYVEAQQKRLEALFTKIQEEFEEHEENTTKPYLPSRALTRQQVRALQDGAELYEAVKNAADPAYLEGYFSEEQLRALNNHRQMLNDKKQAQIQLEIRKAMESAEQKEQGLSRDVTTVWKLRIVSYSKKEKDSVILSIWRPSSDLYSLLTEGKRYRIYHLATSKSKSKSERANIQLAATKKTQYQQLPVSDEILFQIYQPREPLHFSKFLDPDFQPSCSEVDLIGFVVSVVKKTGLAPFVYLSDECYNLLAIKFWIDLNEDIIKPHMLIAASNLQWRPESKSGLLTLFAGDFSVFSASPKEGHFQETFNKMKNTVENIDILCNEAENKLMHILHANDPKWSTPTKDCTSGPYTAQIIPGTGNKLLMSSPNCEIYYQSPLSLCMAKRKSVSTPVSAQMTSKSCKGEKEIDDQKNCKKRRALDFLSRLPLPPPVSPICTFVSPAAQKAFQPPRSCGTKYETPIKKKELNSPQMTPFKKFNEISLLESNSIADEELALINTQALLSGSTGEKQFISVSESTRTAPTSSEDYLRLKRRCTTSLIKEQESSQASTEECEKNKQDTITTKKYI

binding result [2]: binds
B2: 2XMBP-BRC1–4-DBD (domain or fragment, human)
chain: WAGLLGPISNHSFGGSFRTASNKEIKLSEHNIKKSKMFFKDIEEQYPTSLACVEIVNTLALDNQKKLSKPQSINTVSAHLQSSVVVSDCKNSHITPQMLFSKQDFNSNHNLTPSQKAEITELSTILEESGSQFEFTQFRKPSYILQKSTFEVPENQMTILKTTSEECRDADLHVIMNAPSIGQVDSSKQFEGTVEIKRKFAGLLKNDCNKSASGYLTDENEVGFRGFYSAHGTKLNVSTEALQKAVKLFSDIENISEETSAEVHPISLSSSKCHDSVVSMFKIENHNDKTVSEKNNKCQLILQNNIEMTTGTFVEEITENYKRNTENEDNKYTAASRNSHNLEFDGSDSSKNDTVCIHKDETDLLFTDQHNICLKLSGQFMKEGNTQIKEDLSDLTFLEVAKAQEACHGNTSNKEQLTATKTEQNIKDFETSDTFFQTASGKNISVAKESFNKIVNFFDQKPEELHNFSLNSELHSDIRKNKMDILSYEETDIVKHKILKESVPVGTGNQLVTFQGQPERDEKIKEPTLLGFHTASGKKVKIAKESLDKVKNLFDEKEQGTSEITSFSHQWAKTLKYREACKDLELACETIEITAAPGGGSPYLSQFQQDKQQLVLGTKVSLVENIHVLGKEQASPKNVKMEIGKTETFSDVPVKTNIEVCSTYSKDSENYFETEAVEIAKAFMEDDELTDSKLPSHATHSLFTCPENEEMVLSNSRIGKRRGEPLILVGEPSIKRNLLNEFDRIIENQEKSLKASKSTPDGTIKDRRLFMHHVSLEPITCVPFRTTKERQEIQNPNFTAPGQEFLSKSHLYEHLTLEKSSSNLAVSGHPFYQVSATRNEKMRHLITTGRPTKVFVPPFKTKSHFHRVEQCVRNINLEENRQKQNIDGHGSDDSKNKINDNEIHQFNKNNSNQAVAVTFTKCEEEPLDLITSLQNARDIQDMRIKKKQRQRVFPQPGSLYLAKTSTLPRISLKAAVGGQVPSACSHKQLYTYGVSKHCIKINSKNAESFQFHTEDYFGKESLWTGKGIQLADGGWLIPSNDGKAGKEEFYRALCDTPGVDPKLISRIWVYNHYRWIIWKLAAMECAFPKEFANRCLSPERVLLQLKYRYDTEIDRSRRSAIKKIMERDDTAAKTLVLCVSDIISLSANISETSSNKTSSADTQKVAIIELTDGWYAVKAQLDPPLLAVLKNGRLTVGQKIILHGAELVGSPDACTPLEAPESLMLKISANSTRPARWYTKLGFFPDPRPFPLPLSSLFSDGGNVGCVDVIIQRAYPIQWMEKTSSGLYIFRNEREEEKEAAKYVEAQQKRLEALFTKIQEEFEEHEENTTKPYLPSRALTRQQVRALQDGAELYEAVKNAADPAYLEGYFSEEQLRALNNHRQMLNDKKQAQIQLEIRKAMESAEQKEQGLSRDVTTVWKLRIVSYSKKEKDSVILSIWRPSSDLYSLLTEGKRYRIYHLATSKSKSKSERANIQLAATKKTQYQQLPVSDEILFQIYQPREPLHFSKFLDPDFQPSCSEVDLIGFVVSVVKKTGLAPFVYLSDECYNLLAIKFWIDLNEDIIKPHMLIAASNLQWRPESKSGLLTLFAGDFSVFSASPKEGHFQETFNKMKNTVENIDILCNEAENKLMHILHANDPKWSTPTKDCTSGPYTAQIIPGTGNKLLMSSPNCEIYYQSPLSLCMAKRKSVSTPVSAQMTSKSCKGEKEIDDQKNCKKRRALDFLSRLPLPPPVSPICTFVSPAAQKAFQPPRSCGTKYETPIKKKELNSPQMTPFKKFNEISLLESNSIADEELALINTQALLSGSTGEKQFISVSESTRTAPTSSEDYLRLKRRCTTSLIKEQESSQASTEECEKNKQDTITTKKYI
